Molecular target: mRFP1-Rac1 (wild type) (human), P63000
Assay: FRET or BRET
Settings: remark: other sources report otherwise

average FRET efficiency E%: 14%
B1: Teal-N-WASP, O00401 1-505 (natural protein)
chain: MSSVQQQPPPPRRVTNVGSLLLTPQENESLFTFLGKKCVTMSSAVVQLYAADRNCMWSKKCSGVACLVKDNPQRSYFLRIFDIKDGKLLWEQELYNNFVYNSPRGYFHTFAGDTCQVALNFANEEEAKKFRKAVTDLLGRRQRKSEKRRDPPNGPNLPMATVDIKNPEITTNRFYGPQVNNISHTKEKKKGKAKKKRLTKADIGTPSNFQHIGHVGWDPNTGFDLNNLDPELKNLFDMCGISEAQLKDRETSKVIYDFIEKTGGVEAVKNELRRQAPPPPPPSRGGPPPPPPPPHNSGPPPPPARGRGAPPPPPSRAPTAAPPPPPPSRPSVAVPPPPPNRMYPPPPPALPSSAPSGPPPPPPSVLGVGPVAPPPPPPPPPPPGPPPPPGLPSDGDHQVPTTAGNKAALLDQIREGAQLKKVEQNSRPVSCSGRDALLDQIRQGIQLKSVADGQESTPPTPAPTSGIVGALMEVMQKRSKAIHSSDEDEDEDDEEDFEDDDEWED
